In patent US12338277:

Columns and labels:
Assay in all cases: cell-based or functional assay
[1] = target: HIV-1 envelope of pseudovirus Du422.1 (HIV-1)
[2] = target: HIV-1 envelope of pseudovirus CAAN5342.A2 (HIV-1)
[3] = target: HIV-1 Env of pseudovirus X2088_c9 (HIV-1)
[4] = target: HIV-1 envelope glycoprotein of pseudovirus WITO4160.33 (clade B) (HIV-1)
[5] = target: HIV-1 envelope of pseudovirus ZM233M.PB6 (HIV-1)
[6] = target: HIV-1 envelope glycoprotein of pseudovirus CNE58 (clade BC) (HIV-1)
[7] = target: HIV-1 envelope glycoprotein of pseudovirus CNE52 (clade BC) (HIV-1)
[8] = target: HIV-1 envelope glycoprotein of pseudovirus CNE30 (clade BC) (HIV-1)
[9] = target: HIV-1 envelope glycoprotein of pseudovirus QH0692.42 (clade B) (HIV-1)
[10] = target: HIV-1 envelope glycoprotein of pseudovirus HIV-16055-2.3 (clade C) (HIV-1)
[11] = target: HIV-1 envelope glycoprotein of pseudovirus 62357_14_D3_4589 (clade B (T/F)) (HIV-1)
[12] = target: HIV-1 envelope glycoprotein of pseudovirus ZM135M.PL10a (clade C) (HIV-1)
[13] = target: HIV-1 envelope glycoprotein of pseudovirus ZM233M.PB6 (clade C) (HIV-1)
[14] = target: HIV-1 envelope glycoprotein of pseudovirus T278-50 (clade CRF02 AG) (HIV-1)
[15] = target: HIV-1 envelope glycoprotein of pseudovirus 6244_13_B5_4576 (clade B (T/F)) (HIV-1)
[16] = target: HIV-1 envelope glycoprotein of pseudovirus Q842.d12 (clade A) (HIV-1)
[17] = target: HIV-1 envelope glycoprotein of pseudovirus 6952.v1.c20 (clade CD) (HIV-1)
[18] = target: HIV-1 envelope glycoprotein of pseudovirus HIV-16845-2.22 (clade C) (HIV-1)
[19] = target: HIV-1 envelope glycoprotein of pseudovirus CAP45.2.00.G3 (clade C) (HIV-1)
[20] = target: HIV-1 envelope glycoprotein of pseudovirus 263-8 (clade CRF02_AG) (HIV-1)
[21] = target: HIV-1 envelope glycoprotein of pseudovirus RHPA4259.7 (clade B) (HIV-1)

Chain of 10-1074 (antibody) (VH): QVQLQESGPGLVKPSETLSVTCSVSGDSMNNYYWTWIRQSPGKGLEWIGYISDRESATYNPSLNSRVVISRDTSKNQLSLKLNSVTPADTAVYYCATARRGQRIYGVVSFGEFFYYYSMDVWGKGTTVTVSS
Chain of 10-1074 (antibody) (V domain): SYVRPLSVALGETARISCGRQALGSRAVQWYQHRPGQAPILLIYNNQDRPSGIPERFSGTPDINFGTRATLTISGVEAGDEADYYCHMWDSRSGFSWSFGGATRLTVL
Chain of 10-996 (antibody) (VH): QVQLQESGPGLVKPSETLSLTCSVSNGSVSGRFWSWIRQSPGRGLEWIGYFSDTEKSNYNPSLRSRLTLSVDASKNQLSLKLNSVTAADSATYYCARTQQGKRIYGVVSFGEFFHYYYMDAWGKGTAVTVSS
Chain of 10-996 (antibody) (VL): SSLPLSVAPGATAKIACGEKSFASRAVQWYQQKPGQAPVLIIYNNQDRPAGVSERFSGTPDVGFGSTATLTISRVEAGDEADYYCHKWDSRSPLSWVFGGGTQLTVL

Row | Substance | IC50 (TZM-bl neutralization) [1] | IC50 (TZM-bl neutralization) [2] | IC80 (TZM-bl neutralization) [3] | IC50 in the TZM-bl neutralization assay [4] | IC50 (TZM-bl neutralization) [5] | IC50 in the TZM-bl neutralization assay [6] | IC50 in the TZM-bl neutralization assay [7] | IC50 in the TZM-bl neutralization assay [8] | IC50 in the TZM-bl neutralization assay [9] | IC50 in the TZM-bl neutralization assay [10] | IC50 in the TZM-bl neutralization assay [11] | IC50 in the TZM-bl neutralization assay [12] | IC50 in the TZM-bl neutralization assay [13] | IC50 in the TZM-bl neutralization assay [14] | IC50 in the TZM-bl neutralization assay [15] | IC50 in the TZM-bl neutralization assay [16] | IC50 in the TZM-bl neutralization assay [17] | IC50 in the TZM-bl neutralization assay [18] | IC50 in the TZM-bl neutralization assay [19] | IC50 in the TZM-bl neutralization assay [20] | other results
1 | 10-996 (antibody) | 0.056 µg/mL | 0.013 µg/mL | 0.014 µg/mL | – | – | – | – | – | – | – | – | – | – | – | – | – | – | – | – | – | –
2 | 10-1074 (antibody) | 0.045 µg/mL | 0.007 µg/mL | 0.014 µg/mL | 2.11 µg/mL | 0.06 µg/mL | 0.968 µg/mL | 13.1 µg/mL | 1.2 µg/mL | 0.929 µg/mL | > 50 µg/mL | > 50 µg/mL | 0.367 µg/mL | 0.349 µg/mL | 18.3 µg/mL | 0.922 µg/mL | > 50 µg/mL | 0.138 µg/mL | 5.83 µg/mL | > 50 µg/mL | 6.53 µg/mL | IC50 in the TZM-bl neutralization assay [21]: 0.118 µg/mL
3 | PGT121 (antibody) | – | – | – | 6.01 µg/mL | 1.45 µg/mL | > 50 µg/mL | 32.9 µg/mL | 0.559 µg/mL | 8.54 µg/mL | 4.29 µg/mL | 45.6 µg/mL | 5.88 µg/mL | 8.98 µg/mL | > 50 µg/mL | 1.88 µg/mL | 0.074 µg/mL | 0.605 µg/mL | > 50 µg/mL | 6.54 µg/mL | 24.6 µg/mL | IC50 in the TZM-bl neutralization assay [21]: 0.054 µg/mL
